# B1: yeast-displayed wild-type human IL-11 [human] / soluble human IL-11 receptor extracellular domain, his-tagged [human] (parent complex)
# chain 1: PGPPPGPPRVSPDPRAELDSTVLLTRSLLADTRQLAAQLRDKFPADGDHNLDSLPTLAMSAGALGALQLPGVLTRLRADLLSYLRHVQWLRRAGGSSLKTLEPELGTLQARLDRLLRRLQLLMSRLALPQPPPDPPAPPLAPPSSAWGGIRAAHAILGGLHLTLDWAVRGLLLLKTRL
# chain 2: SPCPQAWGPPGVQYGQPGRSVKLCCPGVTAGDPVSWFRDGEPKLLQGPDSGLGHELVLAQADSTDEGTYICQTLDGALGGTVTLQLGYPPARPVVSCQAADYENFSCTWSPSQISGLPTRYLTSYRKKTVLGADSQRRSPSTGPWPCPQDPLGAARCVVHGAEFWSQYRINVTEVNPLGASTRLLDVSLQSILRPDPPQGLRVESVPGYPRRLRASWTYPASWPCQPHFLLKFRLQYRPAQHPAWSTVEPAGLEEVITDAVAGLPHAVRVSARDFLDAGTWSTWSPEAWGTPSTGTIPKEIPAWGQLHTQPEVEPQVDSPAPPRPSLQPHPRLLDHRDSVEQVAVLA
# Variants of: B1
# Experiment: yeast display titration (flow cytometry); parent: 8.2 nM
row,Kd,Variant
1,0.42 nM,"chain 1 PGPPPGPPRVSPDPRAELDSTVLLTRSLLADTRQLAAQLRDKFPADGDHNLDSLPTPAMSARALGALQLPGVLTRLRADLLSYLRHVQWLRRAGGSSLKTLEPELGTLQARLDRLLRRLQLLMSRLALPQPPPDPPAPPLAPPSSAWGGIRAAHAILGGLHLTLDWAVRGLLLLKTRL [chain 1 L57P, chain 1 G62R]"
2,0.22 nM,"chain 1 PGPPPGPPRVSPDPRAELDSIVLLTRSLLADTRQLAAQLRDKFPADGDHNLDSLPTPAMSARALGALQLPGVLTRLRADLLSYLRHVQWLRRAGGSSLKTLEPELGTLQARLDRLLRRLQLLMSRLALPQPPPDPPAPPLAPPSSAWGGIRAAHAILGGLHLTLDWAVRGLLLLKTRL [chain 1 T21I, chain 1 L57P, chain 1 G62R]"
3,0.19 nM,"chain 1 PGPPPGPPRVSPDPRAELGSIVLLTRSLLADTRQLAAQLRDKFPADGDHNLDSLPTPAMSARALGALQLPDVLTRLRADLLSYLRHVQWLRRAGGSSLKTLEPELGTLQARLDRLLRRLQLLMSRLALPQPPPDPPAPPLAPPSSAWGGIRAAHAILGGLHLTLDWAVRGLLLLKTRL [chain 1 D19G, chain 1 T21I, chain 1 L57P, chain 1 G62R, chain 1 G71D]"
